Three molecules from US20240287202A1 (XYPHOS BIOSCIENCES, published 2024) can be followed below.

Sequences and labels used below:
T1: A1-A2 domain of human MICA*001 with C-terminal 6x-His tag (monomer) (human, UniProt Q29983 24-205)
T1 construct: range 24-205; also called MIC-His ligand
T1 sequence: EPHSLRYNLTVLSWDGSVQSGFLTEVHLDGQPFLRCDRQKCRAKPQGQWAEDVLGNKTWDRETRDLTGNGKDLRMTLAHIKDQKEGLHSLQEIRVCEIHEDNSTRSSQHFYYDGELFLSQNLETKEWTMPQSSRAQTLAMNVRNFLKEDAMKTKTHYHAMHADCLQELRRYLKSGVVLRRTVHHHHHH

T2: A1-A2 domain of human MICB with C-terminal 6x-His tag (monomer) (human, UniProt Q29980 24-205)
T2 construct: range 24-205; also called MIC-His ligand
T2 sequence: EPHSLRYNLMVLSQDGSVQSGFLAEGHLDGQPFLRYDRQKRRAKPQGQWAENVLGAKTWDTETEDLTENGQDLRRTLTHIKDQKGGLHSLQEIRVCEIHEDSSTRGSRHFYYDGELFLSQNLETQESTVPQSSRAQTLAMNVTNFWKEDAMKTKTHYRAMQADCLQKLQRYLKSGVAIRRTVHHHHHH

T3: A1-A2 domain of human ULBP3 with C-terminal 6x-His tag (monomer) (human, UniProt Q9BZM4 30-212)
T3 construct: range 30-212; also called MIC-His ligand
T3 sequence: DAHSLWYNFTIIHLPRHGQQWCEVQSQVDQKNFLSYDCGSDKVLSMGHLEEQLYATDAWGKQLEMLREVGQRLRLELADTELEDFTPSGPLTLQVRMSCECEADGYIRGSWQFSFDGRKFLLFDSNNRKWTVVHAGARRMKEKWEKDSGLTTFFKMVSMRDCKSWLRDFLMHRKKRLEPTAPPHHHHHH

T4: His-tagged monomeric ULBP2 R81W (human, UniProt Q9BZM5 29-212)
T4 construct: range 29-212; Construct limits are stated only for wild-type ULBP2-His; position 81 counts on the mature protein, not on the UniProt entry
T4 sequence: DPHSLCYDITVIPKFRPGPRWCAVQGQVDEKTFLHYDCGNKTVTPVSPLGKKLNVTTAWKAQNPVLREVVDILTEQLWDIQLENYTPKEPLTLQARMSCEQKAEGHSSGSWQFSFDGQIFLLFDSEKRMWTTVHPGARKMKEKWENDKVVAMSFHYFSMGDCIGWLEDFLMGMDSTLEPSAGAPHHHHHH

T5: ULBP3-Fc (R&D Systems) (human, UniProt Q9BZM4 30-217)
T5 construct: Bought; also called Ligand-Fc fusion; not shown: Fc of the bought fusion; not described
T5 sequence (looked up): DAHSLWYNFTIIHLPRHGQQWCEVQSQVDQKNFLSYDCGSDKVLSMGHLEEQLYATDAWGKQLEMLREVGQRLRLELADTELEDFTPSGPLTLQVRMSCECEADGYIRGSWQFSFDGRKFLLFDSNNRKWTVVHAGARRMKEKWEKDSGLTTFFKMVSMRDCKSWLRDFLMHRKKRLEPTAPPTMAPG

T6: ULBP2-Fc (R&D Systems) (human, UniProt Q9BZM5 26-217)
T6 construct: Bought; also called Ligand-Fc fusion; not shown: Fc of the bought fusion; not described
T6 sequence (looked up): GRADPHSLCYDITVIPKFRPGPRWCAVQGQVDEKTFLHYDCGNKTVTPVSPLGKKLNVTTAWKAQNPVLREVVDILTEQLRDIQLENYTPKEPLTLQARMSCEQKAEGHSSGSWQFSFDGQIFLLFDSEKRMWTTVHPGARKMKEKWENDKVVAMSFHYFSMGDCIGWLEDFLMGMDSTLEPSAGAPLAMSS

T7: MICB-Fc (R&D Systems) (human, UniProt Q29980 23-298, limits assumed)
T7 construct: Bought; also called Ligand-Fc fusion; not shown: Fc of the bought fusion; not described
T7 sequence (looked up): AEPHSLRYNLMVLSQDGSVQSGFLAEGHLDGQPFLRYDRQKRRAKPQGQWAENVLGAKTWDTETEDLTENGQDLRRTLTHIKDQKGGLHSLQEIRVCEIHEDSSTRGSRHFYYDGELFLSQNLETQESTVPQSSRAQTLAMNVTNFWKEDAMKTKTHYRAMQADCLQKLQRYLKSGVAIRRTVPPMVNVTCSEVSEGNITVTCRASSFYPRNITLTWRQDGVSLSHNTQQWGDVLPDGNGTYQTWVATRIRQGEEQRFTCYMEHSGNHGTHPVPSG

T8: ULBP1-Fc (R&D Systems) (human, UniProt Q9BZM6 26-216)
T8 construct: Bought; also called Ligand-Fc fusion; not shown: Fc of the bought fusion; not described
T8 sequence (looked up): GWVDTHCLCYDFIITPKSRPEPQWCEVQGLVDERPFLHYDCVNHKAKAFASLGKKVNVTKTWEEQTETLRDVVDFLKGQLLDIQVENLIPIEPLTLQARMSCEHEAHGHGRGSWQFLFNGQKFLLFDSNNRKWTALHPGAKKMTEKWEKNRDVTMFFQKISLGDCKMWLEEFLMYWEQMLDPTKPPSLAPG

T9: ULBP4-Fc (R&D Systems) (human, UniProt Q8TD07 31-225, limits assumed)
T9 construct: Bought; also called Ligand-Fc fusion; not shown: Fc of the bought fusion; not described
T9 sequence (looked up): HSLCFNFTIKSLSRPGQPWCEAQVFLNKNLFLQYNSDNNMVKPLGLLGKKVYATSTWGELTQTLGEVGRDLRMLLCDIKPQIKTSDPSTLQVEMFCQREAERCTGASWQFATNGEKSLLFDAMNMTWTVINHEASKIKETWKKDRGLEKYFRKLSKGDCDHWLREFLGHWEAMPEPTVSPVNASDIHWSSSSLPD

T10: MICA-Fc (R&D Systems) (human, UniProt Q29983 24-308, limits assumed)
T10 construct: Bought; also called Ligand-Fc fusion; not shown: Fc of the bought fusion; not described
T10 sequence (looked up): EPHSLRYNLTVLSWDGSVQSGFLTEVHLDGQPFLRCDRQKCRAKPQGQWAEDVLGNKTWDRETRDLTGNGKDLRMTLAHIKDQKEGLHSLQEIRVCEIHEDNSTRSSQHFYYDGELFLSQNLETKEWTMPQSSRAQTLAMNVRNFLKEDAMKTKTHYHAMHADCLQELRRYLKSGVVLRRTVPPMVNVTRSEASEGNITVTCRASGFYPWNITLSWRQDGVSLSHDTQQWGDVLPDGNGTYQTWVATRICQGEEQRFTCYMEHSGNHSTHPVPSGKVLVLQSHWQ

T11: Fc-wtNKG2D (wild-type NKG2D ectodomain fused to the C-terminus of human IgG1 Fc) (human, UniProt P26718 78-216)
T11 construct: range 78-216; Dimeric secreted protein from Expi293 cells; also called Fc-NKG2D; not shown: human IgG1 Fc
T11 sequence: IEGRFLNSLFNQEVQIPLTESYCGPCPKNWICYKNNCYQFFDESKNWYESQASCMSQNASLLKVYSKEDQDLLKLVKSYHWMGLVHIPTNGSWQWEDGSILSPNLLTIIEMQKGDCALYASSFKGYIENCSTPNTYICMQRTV

T12: mouse NKG2D (mouse, UniProt O54709 94-232, limits assumed)
T12 construct: also called mouse wild-type NKG2D
T12 sequence (looked up): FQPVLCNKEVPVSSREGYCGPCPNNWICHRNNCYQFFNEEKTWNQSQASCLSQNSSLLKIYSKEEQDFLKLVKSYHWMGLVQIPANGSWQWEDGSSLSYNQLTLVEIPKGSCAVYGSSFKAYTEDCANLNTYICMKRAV

B1: Fc-iNKG2D.YA (NKG2D ectodomain Y152A fused to the C-terminus of human IgG1 Fc) (Fc fusion)
chain: T11 sequence with Y79A
notes: range 78-216; it is not tied by words to this Fc fusion; not shown: human IgG1 Fc
B2: Rituximab (antibody, V domains shown)
VH: QVQLQQPGAELVKPGASVKMSCKASGYTFTSYNMHWVKQTPGRGLEWIGAIYPGNGDTSYNQKFKGKATLTADKSSSTAYMQLSSLTSEDSAVYYCARSTYYGGDWYFNVWGAGTTVTVSA
VL: QIVLSQSPAILSASPGEKVTMTCRASSSVSYIHWFQQKPGSSPKPWIYATSNLASGVPVRFSGSGSGTSYSLTISRVEAEDAATYYCQQWTSNPPTFGGGTKLEIKR
notes: also called Rituximab (ADCC-); Rituxumab (ADCC); copies: 2 + 2
B3: Rituximab.HC-U2S3 MicAbody (U2S3 A1-A2 domain fused to the C-terminus of the rituximab heavy chain) (bispecific antibody, IgG1)
heavy (part 1 of 2): QVQLQQPGAELVKPGASVKMSCKASGYTFTSYNMHWVKQTPGRGLEWIGAIYPGNGDTSYNQKFKGKATLTADKSSSTAYMQLSSLTSEDSAVYYCARSTYYGGDWYFNVWGAGTTVTVSAA
heavy (part 2 of 2): GGGSEPHSLSYDITVIPKFRPGPRWCAVQGQVDEKTFLHYDCGQKTVTPVSPLGKKLQVTTAWKAQNPVLREVVDILTEQLWDIQLENYTPKEPLTLQARMSCEQKAEGHSSGSWQFSFDGQIFLLFDSEKRMWTTVHPGARKMKEKWENDKVVATKLYLWSMGDCIGWLEDFLMGMDSTLEPS
light: QIVLSQSPAILSASPGEKVTMTCRASSSVSYIHWFQQKPGSSPKPWIYATSNLASGVPVRFSGSGSGTSYSLTISRVEAEDAATYYCQQWTSNPPTFGGGTKLEIK
notes: IgG1 kappa, D265A/N297A; also called HC-fused MicAbody; Rit.HCd.S3; not shown: human IgG1 heavy-chain constant region, ADCC-deficient; human kappa light-chain constant region

Residue numbers refer to the chain shown, from its start. In names and notes the source's numbering stands.

Test [1] deals with T1, A1-A2 domain of human MICA*001 with …. As to the kind of experiment: Octet BLI; Fc-iNKG2D.YA captured on AHC tips, dilution series of His-tagged monomeric ligand. The text has this: (§1) Note that all axes are to the same scale (Binding-0 nm, 0.4 nm. 0.8 nm, 1.2 nm (y-axis); Time-0 s, 50 s, 100 s, 150 s, 200 s, 250 s, 300 s, 350 s (x-axis). Data is representative of a single experiment.

Test [2] concerns the target T2, A1-A2 domain of human MICB with …. The description is as above.
From the text: as §1

Test [3] deals with T3, A1-A2 domain of human ULBP3 with …. The test is described as above.
From the text: as §1

Test [4] deals with T4, His-tagged monomeric ULBP2 R81W. Described as above. The text has this: YA. […] YA were captured with anti-human IgG Fc capture (AHC) biosensor tips then associated with a dilution series of ligand. Data are from single experiments.
In another test the target is T5, ULBP3-Fc (R&D Systems). As to the kind of experiment: ELISA; ligand-Fc coated, biotinylated Fc-iNKG2D.YA, streptavidin-HRP (legend: the Fc-NKG2D is titrated; axis on the sheet: nM ligand-Fc).
The target of another test is T6, ULBP2-Fc (R&D Systems). The description is as above.
The target of a further test is T7, MICB-Fc (R&D Systems). The test is described as above.
For the next test, the target named is T8, ULBP1-Fc (R&D Systems). The description is as above.
The next test concerns the target T9, ULBP4-Fc (R&D Systems). Described as above.
The next test concerns the target T10, MICA-Fc (R&D Systems). Described as above.
In test [5] the target is B1. As to the kind of experiment: Octet BLI; Fc-iNKG2D.YA captured on AHC tips, two-fold dilution series from 50 nM. The text has this:
(§2) The y-axes corresponding to binding responses were set to the same scale for all sensograms.

Test [6] concerns the target T11, Fc-wtNKG2D (wild-type NKG2D ectodomain …). As to the kind of experiment: Octet BLI; Fc-wtNKG2D captured on AHC tips, two-fold dilution series from 50 nM.
From the text: as §2

The target in the next test is T12, mouse NKG2D. As to the kind of experiment: ELISA on mouse NKG2D, absorbance against nM MicAbody.
Test [7] has as its target T11, Fc-wtNKG2D (wild-type NKG2D ectodomain …). As to the kind of experiment: Octet BLI; Fc-wtNKG2D captured on AHC tips, two-fold dilution series of MicAbody from 50 nM.
From the text: as §2

The target in test [8] is B1. As to the kind of experiment: Octet BLI; Fc-iNKG2D.YA captured on AHC tips, two-fold dilution series of MicAbody from 50 nM.
From the text: as §2

Consider B1, for which the binding result was “no binding (tested: 1.2 uM)” in test [1]; “no binding (tested: 0.3 uM)” in [2]; “no binding (tested: 1.2 uM)” in test [3]; “no binding (tested: 2000 nM)” with ULBP3-Fc (R&D Systems); “no binding (tested: 2000 nM)” in the test with ULBP2-Fc (R&D Systems); “no binding (tested: 2000 nM)” in the test with MICB-Fc (R&D Systems). In addition, the binding result with ULBP1-Fc (R&D Systems), with ULBP4-Fc (R&D Systems) and with MICA-Fc (R&D Systems) was “no binding (tested: 2000 nM)” each time. The molecule also had a Kd in test [4] of 3600 nM.

As for B2, the binding result is on record as “no binding (tested: 50 nM (legend))” in test [5], “no binding (tested: 50 nM (legend))” in test [6] and “no binding (tested: about 300 nM)” in the test with mouse NKG2D.

On to B3, for which the binding result in test [7] is on record as “no binding (tested: 50 nM (legend))”. Also, in test [8], the affinity, expressed as Kd, was 0.023 nM.
